From patent publication US20090298759A1 (published 2009)

Tests used:
FcγRI = biological target: T1, FcγRI; test: surface plasmon resonance; FcγRI immobilized (1000 µRIU), CRP injected at 42, 84, 169 and 338 nM
T1 construct: also called FcgRI; CD64
Procedure: FcγRI (1000 μRIU) were immobilized CRP was injected @ 42 nM, 84 nM, 169 nM and 338 nM. Data are recorded as resonance units over time after injection.

[1] = biological target: T2, recombinant human FcγRI from R&D Systems (Cat#1257-FC-050) (human, UniProt P12314 16-292); test: ELISA, recombinant human FcγRI
T2 construct: extracellular domain; Bought reagent; also called CD64
T2 sequence (P12314 16-292): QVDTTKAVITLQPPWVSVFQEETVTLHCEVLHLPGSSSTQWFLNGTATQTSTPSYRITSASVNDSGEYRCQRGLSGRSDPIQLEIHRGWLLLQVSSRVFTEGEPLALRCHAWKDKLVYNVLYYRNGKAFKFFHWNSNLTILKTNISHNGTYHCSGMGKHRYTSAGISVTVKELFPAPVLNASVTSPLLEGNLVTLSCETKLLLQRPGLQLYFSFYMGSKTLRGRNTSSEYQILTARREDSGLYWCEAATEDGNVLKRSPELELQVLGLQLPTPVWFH

T1 sequence (P12314 16-292): as above

Kd (FcγRI): 183 nM | binding result [1]: binds
B1: C-reactive protein (CRP) (ligand)
chain: QTDMSRKAFVFPKESDTSYVSLKAPLTKPLKAFTVCLHFYTELSSTRGYSIFSYATKRQDNEILIFWSKDIGYSFTVGGSEILFEVPEVTVAPVHICTSWESASGIVEFWVDGKPRVRKSLKKGYTVGAEASIILGQEQDSFGGNFEGSQSLVGDIGNVNMWDFVLSPDEINTIYLGGPFSPNVLNWRALKYEVQGEVFTKPQLWP
notes: also called human CRP
